From IntAct's records for PubMed 12832462

B1: Nuclear factor NF-kappa-B p105 subunit (Homo sapiens), P19838 (parent)
chain: MAEDDPYLGRPEQMFHLDPSLTHTIFNPEVFQPQMALPTDGPYLQILEQPKQRGFRFRYVCEGPSHGGLPGASSEKNKKSYPQVKICNYVGPAKVIVQLVTNGKNIHLHAHSLVGKHCEDGICTVTAGPKDMVVGFANLGILHVTKKKVFETLEARMTEACIRGYNPGLLVHPDLAYLQAEGGGDRQLGDREKELIRQAALQQTKEMDLSVVRLMFTAFLPDSTGSFTRRLEPVVSDAIYDSKAPNASNLKIVRMDRTAGCVTGGEEIYLLCDKVQKDDIQIRFYEEEENGGVWEGFGDFSPTDVHRQFAIVFKTPKYKDINITKPASVFVQLRRKSDLETSEPKPFLYYPEIKDKEEVQRKRQKLMPNFSDSFGGGSGAGAGGGGMFGSGGGGGGTGSTGPGYSFPHYGFPTYGGITFHPGTTKSNAGMKHGTMDTESKKDPEGCDKSDDKNTVNLFGKVIETTEQDQEPSEATVGNGEVTLTYATGTKEESAGVQDNLFLEKAMQLAKRHANALFDYAVTGDVKMLLAVQRHLTAVQDENGDSVLHLAIIHLHSQLVRDLLEVTSGLISDDIINMRNDLYQTPLHLAVITKQEDVVEDLLRAGADLSLLDRLGNSVLHLAAKEGHDKVLSILLKHKKAALLLDHPNGDGLNAIHLAMMSNSLPCLLLLVAAGADVNAQEQKSGRTALHLAVEHDNISLAGCLLLEGDAHVDSTTYDGTTPLHIAAGRGSTRLAALLKAAGADPLVENFEPLYDLDDSWENAGEDEGVVPGTTPLDMATSWQVFDILNGKPYEPEFTSDDLLAQGDMKQLAEDVKLQLYKLLEIPDPDKNWATLAQKLGLGILNNAFRLSPAPSKTLMDNYEVSGGTVRELVEALRQMGYTEAIEVIQAASSPVKTTSQAHSLPLSPASTRQQIDELRDSDSVCDSGVETSFRKLSFTESLTSGASLLTLNKMPHDYGQEGPLEGKI

Variants of: B1
Details: with m3k8_human MAP3K8, P41279
m3k8_human MAP3K8, P41279, sequence (P41279 whole entry): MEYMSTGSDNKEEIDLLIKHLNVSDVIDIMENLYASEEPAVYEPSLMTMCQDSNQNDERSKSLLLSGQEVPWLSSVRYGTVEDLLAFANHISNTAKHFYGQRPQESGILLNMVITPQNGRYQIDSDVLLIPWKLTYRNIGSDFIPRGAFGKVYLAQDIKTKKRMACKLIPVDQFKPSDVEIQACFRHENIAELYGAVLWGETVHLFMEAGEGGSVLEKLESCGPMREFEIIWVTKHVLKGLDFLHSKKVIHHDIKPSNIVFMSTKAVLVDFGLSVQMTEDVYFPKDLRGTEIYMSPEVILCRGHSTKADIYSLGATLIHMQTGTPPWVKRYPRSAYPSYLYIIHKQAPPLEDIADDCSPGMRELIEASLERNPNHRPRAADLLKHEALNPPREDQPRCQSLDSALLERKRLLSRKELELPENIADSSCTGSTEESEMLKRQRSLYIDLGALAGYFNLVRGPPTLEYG

| Variant | effect of a mutation on the interaction |
| --- | --- |
| L841A | decreasing interaction |
